Consider 56 variants from the RNAGym collection of RNA variant scans (doi:10.7554/elife.90254).

The chains are these.
B1: LINE1-mini (parent)
chain: GGCAGAGCUCAACACAGCGUGGCAAAGUGGCUGUGGCUAGACUGCC

This data set covers variants of B1. Nature of the data set: self-cleavage, relative activity (ratio to wild type); higher = more cleavage; in vitro, sequencing; the parent is a self-cleaving ribozyme.
As to GGGAGAGCUCAACACAGCGUGGCCAAGUGGCUGUGGCUAGACUGCC [C3G A24C], the self-cleavage was 0.35.

GGGAGAGCUCAACACAGCGUGGCUAAGUGGCUGUGGCUAGACUGCC [C3G A24U]: the self-cleavage came out at 0.72.

Consider GGGAGAGCUCAACACAGCGUGGCGAAGUGGCUGUGGCUAGACUGCC [C3G A24G], for which the self-cleavage was 0.5.

Take GGAAGAGCUCAACACAGCGUGGCAAAGUGGCUGUGACUAGACUGCC [C3A G36A]: the self-cleavage was 1.1.

Regarding GGAAGAGCUCAACACAGCGUGGCAAAGUGGCUGUGUCUAGACUGCC [C3A G36U], the self-cleavage amounted to 0.38.

In the case of GGAAGAGCUCAACACAGCGUGGCAAAGUGGCUGUGCCUAGACUGCC [C3A G36C], the self-cleavage came to 1.01.

For the variant GGGAGAGCUCAACACGGCGUGGCAAAGUGGCUGUGGCUAGACUGCC [C3G A16G], the self-cleavage came out at 0.23.

Turning to GGGAGAGCUCAACACUGCGUGGCAAAGUGGCUGUGGCUAGACUGCC [C3G A16U], the self-cleavage was 0.18.

GGGAGAGCUCAACACCGCGUGGCAAAGUGGCUGUGGCUAGACUGCC [C3G A16C]: the self-cleavage was 0.12.

For GGGAGAGCUCAACACAGCGUGGUAAAGUGGCUGUGGCUAGACUGCC [C3G C23U], the self-cleavage was 0.81.

Turning to GGGAGAGCUCAACACAGCGUGGGAAAGUGGCUGUGGCUAGACUGCC [C3G C23G], the self-cleavage turned out to be 0.2.

Consider GGGAGAGCUCAACACAGCGUGGAAAAGUGGCUGUGGCUAGACUGCC [C3G C23A], for which the self-cleavage was 0.47.

Regarding GGAAGAGCUCAACACAGCGUGGCAAAGUGGCUGUGGCUAGACCGCC [C3A U43C], the self-cleavage worked out at 0.28.

With GGAAGAGCUCAACACAGCGUGGCAAAGUGGCUGUGGCUAGACGGCC [C3A U43G], the self-cleavage turned out to be 0.04.

Regarding GGAAGAGCUCAACACAGCGUGGCAAAGUGGCUGUGGCUAGACAGCC [C3A U43A], the self-cleavage is 0.39.

For GGGAGAGCUCAGCACAGCGUGGCAAAGUGGCUGUGGCUAGACUGCC [C3G A12G], the self-cleavage is 0.09.

On to GGGAGAGCUCACCACAGCGUGGCAAAGUGGCUGUGGCUAGACUGCC [C3G A12C], for which the self-cleavage is 0.19.

On to GGGAGAGCUCAUCACAGCGUGGCAAAGUGGCUGUGGCUAGACUGCC [C3G A12U], for which the self-cleavage was found to be 0.43.

On to GGGAGAGCUCAACACAGCGUGGCAAAGUGGGUGUGGCUAGACUGCC [C3G C31G], for which the self-cleavage turned out to be 0.07.

Turning to GGGAGAGCUCAACACAGCGUGGCAAAGUGGUUGUGGCUAGACUGCC [C3G C31U], the self-cleavage was 0.07.

In the case of GGGAGAGCUCAACACAGCGUGGCAAAGUGGAUGUGGCUAGACUGCC [C3G C31A], the self-cleavage is 0.15.

As for GGGAGAGCUCAACCCAGCGUGGCAAAGUGGCUGUGGCUAGACUGCC [C3G A14C], the self-cleavage was 0.06.

With GGGAGAGCUCAACUCAGCGUGGCAAAGUGGCUGUGGCUAGACUGCC [C3G A14U], the self-cleavage turned out to be 0.32.

Consider GGGAGAGCUCAACGCAGCGUGGCAAAGUGGCUGUGGCUAGACUGCC [C3G A14G], for which the self-cleavage was found to be 1.31.

For the variant GGGAGAGCUCAACACAGCGUGGCAUAGUGGCUGUGGCUAGACUGCC [C3G A25U], the self-cleavage was 0.47.

For GGGAGAGCUCAACACAGCGUGGCACAGUGGCUGUGGCUAGACUGCC [C3G A25C], the self-cleavage worked out at 0.18.

GGGAGAGCUCAACACAGCGUGGCAGAGUGGCUGUGGCUAGACUGCC [C3G A25G]: the self-cleavage came to 0.14.

Turning to GGAAGAGCUCAACACAGCGUGGCAAAGUGCCUGUGGCUAGACUGCC [C3A G30C], the self-cleavage was determined as 0.58.

As for GGAAGAGCUCAACACAGCGUGGCAAAGUGUCUGUGGCUAGACUGCC [C3A G30U], the self-cleavage turned out to be 0.61.

Take GGAAGAGCUCAACACAGCGUGGCAAAGUGACUGUGGCUAGACUGCC [C3A G30A]: the self-cleavage was found to be 1.1.

In the case of GGGAGAGCUAAACACAGCGUGGCAAAGUGGCUGUGGCUAGACUGCC [C3G C10A], the self-cleavage was 0.05.

With GGGAGAGCUUAACACAGCGUGGCAAAGUGGCUGUGGCUAGACUGCC [C3G C10U], the self-cleavage worked out at 0.19.

As to GGGAGAGCUGAACACAGCGUGGCAAAGUGGCUGUGGCUAGACUGCC [C3G C10G], the self-cleavage was determined as 0.04.

Turning to GGGAGAGCUCAACACAGCGUGGCAAAGUGGCUGUGGCUAGACUGGC [C3G C45G], the self-cleavage was found to be 1.97.

For the variant GGGAGAGCUCAACACAGCGUGGCAAAGUGGCUGUGGCUAGACUGUC [C3G C45U], the self-cleavage came out at 0.33.

Take GGGAGAGCUCAACACAGCGUGGCAAAGUGGCUGUGGCUAGACUGAC [C3G C45A]: the self-cleavage turned out to be 0.45.

Turning to GGGAGAGCUCAACACAGCGUGGCAAAGUGGCUGUGGCUAGAGUGCC [C3G C42G], the self-cleavage turned out to be 0.05.

In the case of GGGAGAGCUCAACACAGCGUGGCAAAGUGGCUGUGGCUAGAUUGCC [C3G C42U], the self-cleavage turned out to be 0.31.

On to GGGAGAGCUCAACACAGCGUGGCAAAGUGGCUGUGGCUAGAAUGCC [C3G C42A], for which the self-cleavage was determined as 0.28.

On to GGAAGAGCACAACACAGCGUGGCAAAGUGGCUGUGGCUAGACUGCC [C3A U9A], for which the self-cleavage came to 0.59.

Regarding GGAAGAGCCCAACACAGCGUGGCAAAGUGGCUGUGGCUAGACUGCC [C3A U9C], the self-cleavage was 0.05.

With GGAAGAGCGCAACACAGCGUGGCAAAGUGGCUGUGGCUAGACUGCC [C3A U9G], the self-cleavage was 0.57.

For the variant GGGAGAGGUCAACACAGCGUGGCAAAGUGGCUGUGGCUAGACUGCC [C3G C8G], the self-cleavage is 0.08.

For the variant GGGAGAGAUCAACACAGCGUGGCAAAGUGGCUGUGGCUAGACUGCC [C3G C8A], the self-cleavage is 0.52.

Regarding GGGAGAGUUCAACACAGCGUGGCAAAGUGGCUGUGGCUAGACUGCC [C3G C8U], the self-cleavage came out at 0.39.

In the case of GGGAGAGCUCAACACAGGGUGGCAAAGUGGCUGUGGCUAGACUGCC [C3G C18G], the self-cleavage stood at 0.15.

Regarding GGGAGAGCUCAACACAGUGUGGCAAAGUGGCUGUGGCUAGACUGCC [C3G C18U], the self-cleavage is 0.54.

Turning to GGGAGAGCUCAACACAGAGUGGCAAAGUGGCUGUGGCUAGACUGCC [C3G C18A], the self-cleavage turned out to be 0.17.

For GGAAGAGCUCAACACAGCGUGGCAAAGUGGCUGCGGCUAGACUGCC [C3A U34C], the self-cleavage is 0.14.

As for GGAAGAGCUCAACACAGCGUGGCAAAGUGGCUGGGGCUAGACUGCC [C3A U34G], the self-cleavage was 0.12.

On to GGAAGAGCUCAACACAGCGUGGCAAAGUGGCUGAGGCUAGACUGCC [C3A U34A], for which the self-cleavage came to 0.11.

GGAAGAGCUCAACACAGCGUGGCAAAGUGGCUCUGGCUAGACUGCC [C3A G33C]: the self-cleavage was found to be 0.1.

For the variant GGAAGAGCUCAACACAGCGUGGCAAAGUGGCUAUGGCUAGACUGCC [C3A G33A], the self-cleavage amounted to 0.37.

In the case of GGAAGAGCUCAACACAGCGUGGCAAAGUGGCUUUGGCUAGACUGCC [C3A G33U], the self-cleavage is 0.15.

As for GGGAGAGCUCAACACAGCGUGGCAAAGUGGCUGUGGCUCGACUGCC [C3G A39C], the self-cleavage worked out at 0.14.

On to GGGAGAGCUCAACACAGCGUGGCAAAGUGGCUGUGGCUGGACUGCC [C3G A39G], for which the self-cleavage came out at 0.56.
